Measured values reported in patent US20070207086A1 (published 2007).
Positions of bridges follow the written chain, without caps; N, C: chain ends. No end group written: not given here.

How the values were obtained:
[1] = molecular target: human HER2 receptor overexpressed on T6-17 cells (NIH3T3-derived) (human, UniProt P04626 23-1255); experiment: cell-based or functional assay
[2] = molecular target: T1, Recombinant purified HER2 receptor composed of the ectodomain of HER2 fused to the Fc of human IgG (human, UniProt P04626 23-652, limits assumed); experiment: Biacore SPR, immobilized HER2-Fc
T1 construct: extracellular domain; Provided by Dr. Che Law, Xcyte Therapeutics; amine-coupled to the Biacore chip (3500 RU); also called immobilized HER2; p185; not shown: Fc of human IgG
Procedure: (§1) Binding experiments were performed with the surface plasmon resonance based biosensor instrument Biacore 3000 (Biacore AB, Uppsala, Sweden) at 25° C. Recombinant purified HER2 receptor composed of the ectodomain of HER2 fused to the Fc of human IgG was provided by Dr. Che Law, Xcyte Therapeutics, Seattle, Wash. Immobilization of HER2 in the sensor surface was performed following the standard amine coupling procedure according to manufacturer's instructions. Briefly, 35 μL of a solution containing 0.2M N-ethyl-N-(dimethylaminopropyl) carbodiimide (EDC) and 0.05 M N-hydroxysuccinimide (NHS) were injected at a flow rate of 5 μL/min to activate carboxyl groups on the sensor chip surface. HER2 (40 ng/mL in 10 mM NaOAc buffer, pH 5.0) was flowed over the chip surface at a flow rate of 20 μL/min until the desired level bound protein was reached. Unreacted protein washed out and unreacted activated groups were blocked by the injection of 35 μL of 1 M ethanolamine at 5 μL/min. […] A reference surface was generated simultaneously under the same conditions but without HER2 injection and used as a blank to correct for instrument and buffer artifacts. Peptides were injected at variable concentrations at 20 μL/min flow rate and binding to the HER2 receptor immobilized on the chip was monitored in real time. Each sensorgram consists of an association phase (first 240s), reflecting binding of the injected peptide to the receptor, followed by a dissociation phase (300s), during which the running buffer is passed over the chip and the bound peptide is being washed off the receptor surface.

[3] = molecular target: T1, Recombinant purified HER2 receptor …; experiment: Biacore SPR, HER2 ectodomain-Fc immobilized, peptide as analyte
Procedure: as §1

[4] = molecular target: T1, Recombinant purified HER2 receptor …; experiment: Biacore competition, AHNP preinjected 0-90 µM, then 1 nM rhumAb 4D5 (competitor) on immobilized HER2-Fc; initial rate of antibody binding
Procedure: as §1, with “Each sensorgram consists of an association phase (first 240s), reflecting binding of the injected peptide to the receptor, followed by a dissociation phase (300s), during which the running buffer is passed over the chip and the bound peptide is being washed off the receptor surface.” left out

Binder | % inhibition (inhibition of T6-17 cell proliferation in MTT assays, 1 µg/mL peptide) [1] [%] | fold increase in binding affinity against peptide 2 [2] [fold] | Kd [3] [nM] | koff [3] [s⁻¹] | kon [3] [M⁻¹ s⁻¹] | IC50 [4] [nM] | fold improvement in binding (Phe replaced with Tyr) [2] [fold] | fold decrease in affinity (Lys substituted for Met) [2] [fold] | fold higher affinity than the linear analogue 9 [2] [fold]
FCDGFYACYMDV-NH2 (disulfide 2-8, Designed from the CDR-H3 loop of rhumAb 4D5; also called anti-HER2 peptide) [AHNP (anti-HER2/neu peptide mimetic), peptide 1, FCDGFYACYMDV-NH2] | 35.5 | > 2 | 320 | 0.000453 | 1410 | 3400 |  |  | 
YCDGFYACYMDV-NH2 (disulfide 2-8 (inferred), N-terminal Phe of AHNP replaced with Tyr; also called peptide 3) [AHNP analogue 3, YCDGFYACYMDV-NH2] | 59.6 |  | 150 | 0.000294 | 1960 |  | > 2 |  | 
FCDGFYACYKDV-OH (disulfide 2-8 (inferred), Met of peptide 2 replaced by Lys; also called peptide 6) [AHNP analogue 6, FCDGFYACYKDV-OH] | 8.4 |  | 5700 | 0.00125 | 219 |  |  | 8.8 | 
FCDGFYACYMDV-OH (disulfide 2-8 (inferred), also called peptide 2) [AHNP analogue 2, FCDGFYACYMDV-OH (cyclic)] | 22.3 |  | 650 | 0.000643 | 990 |  |  |  | > 5
FCGDGFYACYMDV-OH (disulfide 2-9 (inferred), First AHNP analogue designed; has one more turn Gly than peptide 2; also called peptide 8) [AHNP analogue 8, FCGDGFYACYMDV-OH] | 18.4 |  | 760 | 0.000701 | 922 |  |  |  | 
FCDGFYACYMDV-OH (cysteine pairing not given here, also called peptide 9; linear analogue 9) [AHNP analogue 9, FCDGFYACYMDV-OH (linear, not cyclized)] | 12.8 |  | 3560 | 0.00106 | 298 |  |  |  | 
FCDGFYACYMDVK-NH2 (disulfide 2-8 (inferred), Lys added as C-terminal residue; also called peptide 5) [AHNP analogue 5, FCDGFYACYMDVK-NH2] |  |  | 830 | 0.000512 | 617 |  |  |  | 
GFCDGFYACYMDV-OH (disulfide 3-9 (inferred), Gly placed at the N-terminus before Phe1; also called peptide 7) [AHNP analogue 7, GFCDGFYACYMDV-OH] |  |  | 730 | 0.000808 | 1110 |  |  |  | 
